The record followed here is PMC4338599.

What all share (assay): SPR
In general terms: SPR reads the build-up and loss of mass on a sensor chip optically.

In data set [1] the target is Ku70-Ku80 heterodimer (Ku) (UniProt P12956+P13010).
Data set [2] has as its target Ku70-Ku80 heterodimer (Ku);PAXX WT (PAXX1-204, C9orf142) (human?;human) (UniProt P12956+P13010+Q9BUH6).
The target of data set [3] is Ku70-Ku80 heterodimer (Ku);PAXX V199A/F201A V199A;F201A (human?;human) (UniProt P12956+P13010+Q9BUH6).
Sequence of Ku70-Ku80 heterodimer (Ku);PAXX V199A/F201A V199A;F201A (human?;human) (P12956 whole entry, chain 1 of 3): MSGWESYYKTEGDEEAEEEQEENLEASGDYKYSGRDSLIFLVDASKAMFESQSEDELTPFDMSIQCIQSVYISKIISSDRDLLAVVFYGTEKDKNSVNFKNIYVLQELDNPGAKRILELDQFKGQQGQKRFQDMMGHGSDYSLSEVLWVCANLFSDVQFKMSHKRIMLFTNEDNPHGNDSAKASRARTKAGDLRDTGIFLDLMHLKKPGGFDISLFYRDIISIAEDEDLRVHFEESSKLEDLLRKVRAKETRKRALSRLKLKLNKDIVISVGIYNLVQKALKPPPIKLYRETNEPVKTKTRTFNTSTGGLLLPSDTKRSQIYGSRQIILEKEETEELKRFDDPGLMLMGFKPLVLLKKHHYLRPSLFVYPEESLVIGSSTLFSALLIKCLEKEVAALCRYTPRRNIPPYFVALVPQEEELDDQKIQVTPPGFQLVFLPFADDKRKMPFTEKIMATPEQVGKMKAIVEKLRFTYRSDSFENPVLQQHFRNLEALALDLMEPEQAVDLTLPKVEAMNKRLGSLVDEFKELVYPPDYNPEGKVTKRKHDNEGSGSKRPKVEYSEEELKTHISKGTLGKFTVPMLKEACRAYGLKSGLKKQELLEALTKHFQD
Sequence of Ku70-Ku80 heterodimer (Ku);PAXX V199A/F201A V199A;F201A (human?;human) (P13010 whole entry, chain 2 of 3): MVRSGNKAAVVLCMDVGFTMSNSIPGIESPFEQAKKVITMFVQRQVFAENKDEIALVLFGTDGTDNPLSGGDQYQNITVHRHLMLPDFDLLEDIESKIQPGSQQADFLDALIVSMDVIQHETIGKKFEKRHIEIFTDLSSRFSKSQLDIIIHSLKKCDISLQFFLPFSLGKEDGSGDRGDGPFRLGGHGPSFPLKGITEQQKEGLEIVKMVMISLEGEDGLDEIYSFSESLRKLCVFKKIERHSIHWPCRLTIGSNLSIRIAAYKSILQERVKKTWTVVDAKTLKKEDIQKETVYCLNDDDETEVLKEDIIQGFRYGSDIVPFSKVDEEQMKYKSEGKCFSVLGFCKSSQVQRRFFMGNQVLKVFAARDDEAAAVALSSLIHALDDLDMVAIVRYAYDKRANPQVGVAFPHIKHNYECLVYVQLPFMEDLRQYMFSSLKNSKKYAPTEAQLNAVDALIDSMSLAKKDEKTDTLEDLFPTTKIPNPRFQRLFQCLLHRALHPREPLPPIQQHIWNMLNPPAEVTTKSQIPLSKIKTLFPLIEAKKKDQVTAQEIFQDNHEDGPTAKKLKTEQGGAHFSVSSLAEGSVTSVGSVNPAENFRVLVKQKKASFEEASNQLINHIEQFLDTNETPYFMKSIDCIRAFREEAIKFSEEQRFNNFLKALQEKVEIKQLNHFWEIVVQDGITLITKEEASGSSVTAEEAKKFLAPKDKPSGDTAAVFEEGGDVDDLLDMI
Sequence of Ku70-Ku80 heterodimer (Ku);PAXX V199A/F201A V199A;F201A (human?;human) (Q9BUH6 whole entry V199A/F201A, chain 3 of 3): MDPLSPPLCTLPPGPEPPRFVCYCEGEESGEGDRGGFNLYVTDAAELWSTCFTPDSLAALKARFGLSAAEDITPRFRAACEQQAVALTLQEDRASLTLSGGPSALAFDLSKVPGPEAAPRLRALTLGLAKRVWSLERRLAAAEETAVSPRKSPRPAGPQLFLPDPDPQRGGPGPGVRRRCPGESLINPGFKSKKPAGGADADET

Sequence of Ku70-Ku80 heterodimer (Ku) (P12956 whole entry, chain 1 of 2): as the sequence (P12956 whole entry, chain 1 of 3) above
Sequence of Ku70-Ku80 heterodimer (Ku) (P13010 whole entry, chain 2 of 2): as the sequence (P13010 whole entry, chain 2 of 3) above
Sequence of Ku70-Ku80 heterodimer (Ku);PAXX WT (PAXX1-204, C9orf142) (human?;human) (P12956 whole entry, chain 1 of 3): as the sequence (P12956 whole entry, chain 1 of 3) above
Sequence of Ku70-Ku80 heterodimer (Ku);PAXX WT (PAXX1-204, C9orf142) (human?;human) (P13010 whole entry, chain 2 of 3): as the sequence (P13010 whole entry, chain 2 of 3) above
Sequence of Ku70-Ku80 heterodimer (Ku);PAXX WT (PAXX1-204, C9orf142) (human?;human) (Q9BUH6 whole entry, chain 3 of 3): as the sequence (Q9BUH6 whole entry V199A/F201A, chain 3 of 3) above, with A199V, A201F counted along it

Consider “ATATATCCATGGCTGCCTCACAAACTTCACAAACTGTTGCATCTCACGTTCCTTTTGCAGATTTGTGTTCAACTTTAGAACGAATACAGAAAAGTAAAGGACGTGCA (double strand) [107-bp biotinylated LIG4 PCR fragment]”, for which the binding result is listed as “binds” in data set [1], “binds” in data set [2] and “no binding” in data set [3].
